This passage reports Kd results from the Immune Epitope Database (IEDB).

In test [1] the target is HLA-A*01:01. In words: IEDB peptide-MHC binding, purified MHC/direct/fluorescence; filed as Kd, often an IC50 or EC50 that approximates it; ≥ and ≤ were set here for values at or beyond the usual limits of such assays.
Another test deals with HLA-A*29:02. The test is described as above.
Another test addresses HLA-B*54:01. Description: IEDB peptide-MHC binding, purified MHC/competitive/radioactivity; filed as Kd, often an IC50 or EC50 that approximates it; ≥ and ≤ were set here for values at or beyond the usual limits of such assays. Particulars: source organism: Hepatitis C virus (isolate 1).
The target in test [2] is HLA-A*11:01. The test is described as above. The note with it: source organism: Hepatitis C virus (isolate 1).
In test [3] the target is HLA-A*01:01. The description is as above. The note with it: source organism: Hepatitis C virus (isolate 1).
The next test has as its target HLA-A*02:03. The test is described as above. The note with it: source organism: Hepatitis C virus (isolate 1).
The target in test [4] is HLA-B*07:02. The description is as above. The note with it: source organism: Hepatitis C virus (isolate 1).
For the next test, the target named is HLA-A*02:06. The description is as above. Particulars: source organism: Hepatitis C virus (isolate 1).
Test [5] deals with HLA-B*18:01. Described as above. The note with it: source organism: Hepatitis C virus (isolate 1).
For test [6], the target named is HLA-A*02:01. The test is described as above. The note with it: source organism: Hepatitis C virus (isolate 1).
Another test concerns the target HLA-A*68:02. The description is as above. Particulars: source organism: Hepatitis C virus (isolate 1).
The target in test [7] is HLA-A*03:01. The description is as above. The note with it: source organism: Hepatitis C virus (isolate 1).
In test [8] the target is HLA-B*40:01. The test is described as above. Particulars: source organism: Hepatitis C virus (isolate 1).
Another test has as its target HLA-B*51:01. The description is as above. Particulars: source organism: Hepatitis C virus (isolate 1).
In another test the target is HLA-B*35:01. The test is described as above. Particulars: source organism: Hepatitis C virus (isolate 1).
The target in a further test is HLA-A*02:02. The test is described as above. Particulars: source organism: Hepatitis C virus (isolate 1).
For test [9], the target named is HLA-A*31:01. The description is as above. Particulars: source organism: Hepatitis C virus (isolate 1).
In another test the target is HLA-B*40:02. The description is as above. The note with it: source organism: Hepatitis C virus (isolate 1).
The target of another test is HLA-A*68:01. The description is as above. Particulars: source organism: Hepatitis C virus (isolate 1).
For a further test, the target named is HLA-B*44:03. The test is described as above. Particulars: source organism: Hepatitis C virus (isolate 1).
The target of another test is HLA-B*53:01. The test is described as above. The note with it: source organism: Hepatitis C virus (isolate 1).
The target in the next test is HLA-A*33:01. The description is as above. The note with it: source organism: Hepatitis C virus (isolate 1).
Test [10] has as its target HLA-A*11:01. In words: IEDB peptide-MHC binding, purified MHC/direct/fluorescence; filed as Kd, often an IC50 or EC50 that approximates it; ≥ and ≤ were set here for values at or beyond the usual limits of such assays.
Another test concerns the target HLA-B*58:01. The description is as above.
The target in a further test is HLA-B*08:01. Described as above.
The target of another test is HLA-B*46:01. The test is described as above.
Another test concerns the target HLA-A*69:01. Described as above.
Another test has as its target HLA-B*48:01. The description is as above.
The target in another test is HLA-B*57:01. Described as above.
The next test deals with HLA-B*27:05. The test is described as above.
Test [11] concerns the target HLA-B*18:01. The description is as above.
Test [12] has as its target HLA-A*02:01. The test is described as above.
The target in test [13] is HLA-A*03:01. The description is as above.
In test [14] the target is HLA-B*40:01. The test is described as above.
For test [15], the target named is HLA-A*31:01. Described as above.
The next test concerns the target HLA-B*44:02. The test is described as above.
A further test deals with HLA-A*02:19. Description: IEDB peptide-MHC binding, purified MHC/competitive/fluorescence; filed as Kd, often an IC50 or EC50 that approximates it; ≥ and ≤ were set here for values at or beyond the usual limits of such assays. The note with it: source organism: Burkholderia mallei SAVP1.
The target in test [16] is HLA-A*02:01. The description is as above.
Test [17] deals with HLA-B*07:02. In words: IEDB peptide-MHC binding, purified MHC/direct/fluorescence; filed as Kd, often an IC50 or EC50 that approximates it; ≥ and ≤ were set here for values at or beyond the usual limits of such assays.
In another test the target is HLA-B*15:01. The test is described as above.
The next test deals with HLA-B*15:17. The description is as above.
The mark [18] stands for this setting: source organism: Mammarenavirus juninense.
[19] abbreviates: source organism: Mycobacterium tuberculosis C.
Where [20] appears, read: source organism: Mycobacterium tuberculosis.
Where [21] appears, read: source organism: Coxiella burnetii.
Setting [22] is: source organism: Bacillus anthracis.

Take ATDPVEMAL: the dissociation constant (Kd) is 0.308 µM in the test with HLA-A*01:01 [1] (setting [18]) and at least 20 µM in the test with HLA-A*29:02 (setting [18]).

With HSKKKCDEL, the Kd with HLA-B*54:01 is at least 78.1 µM; in the test with HLA-A*11:01 [2], at least 37.3 µM; with HLA-A*01:01 [3] it was 3.52 µM; in the test with HLA-A*02:03, at least 78.1 µM; in the test with HLA-B*07:02 [4], at least 77.5 µM; with HLA-A*02:06 it was at least 77.1 µM. Further, the Kd with HLA-B*18:01 [5] is at least 77.5 µM; with HLA-A*02:01 [6], at least 69.4 µM; with HLA-A*68:02 it was at least 69.8 µM; in the test with HLA-A*03:01 [7] it was at least 78 µM; in the test with HLA-B*40:01 [8], at least 76.2 µM; with HLA-B*51:01, at least 77.5 µM. The Kd in the test with HLA-B*35:01 was at least 77.4 µM; with HLA-A*02:02, at least 70 µM; with HLA-A*31:01 [9], at least 65 µM; in the test with HLA-B*40:02, at least 77.3 µM; with HLA-A*68:01 it was at least 77.7 µM; in the test with HLA-B*44:03, at least 78.2 µM. Also, the Kd was at least 78.2 µM with HLA-B*53:01 and at least 77.7 µM in the test with HLA-A*33:01.

Turning to IIRTENRPL, the Kd was at least 20 µM with HLA-A*11:01 [10] (setting [19]); at least 20 µM with HLA-A*01:01 [1] (setting [19]); at least 20 µM with HLA-B*58:01 (setting [19]); 3.06 µM with HLA-B*08:01 (setting [19]); at least 20 µM with HLA-B*46:01 (setting [19]); at least 20 µM in the test with HLA-A*69:01 (setting [19]). Also, the Kd with HLA-B*48:01 (setting [19]), with HLA-B*57:01 (setting [19]), with HLA-B*27:05 (setting [19]), in the test with HLA-B*18:01 [11] (setting [19]), in the test with HLA-A*02:01 [12] (setting [19]) and with HLA-A*03:01 [13] (setting [19]) was at least 20 µM each time. Also, the dissociation constant Kd with HLA-B*40:01 [14] (setting [19]), in the test with HLA-A*31:01 [15] (setting [19]), in the test with HLA-A*29:02 (setting [19]) and with HLA-B*44:02 (setting [19]) was at least 20 µM in each case.

In the case of IMALKQAGL, the Kd with HLA-A*02:19 was 0.0045 µM; in the test with HLA-A*02:01 [16] (source organism: Burkholderia mallei SAVP1) it was 0.0445 µM.

Take IQAVFGFSL: the Kd with HLA-A*02:01 [16] (source organism: Mycobacterium tuberculosis variant bovis BCG str. Pasteur 1173P2) was 1.35 µM; in the test with HLA-A*11:01 [10] (setting [20]), at least 20 µM; in the test with HLA-A*01:01 [1] (setting [20]) it was at least 20 µM; with HLA-B*58:01 (setting [20]), at least 20 µM; in the test with HLA-B*07:02 [17] (setting [20]) it was at least 20 µM; in the test with HLA-B*46:01 (setting [20]), at least 20 µM. For the same sequence, the Kd with HLA-A*69:01 (setting [20]), with HLA-B*57:01 (setting [20]), with HLA-B*27:05 (setting [20]), in the test with HLA-A*03:01 [13] (setting [20]), in the test with HLA-A*31:01 [15] (setting [20]) and with HLA-A*29:02 (setting [20]) was at least 20 µM throughout. The sequence further gave a Kd with HLA-B*44:02 (setting [20]) of at least 20 µM.

Turning to ITLYEYDHF, the dissociation constant (Kd) is at least 20 µM with HLA-B*15:01 (setting [21]); at least 20 µM in the test with HLA-A*01:01 [1] (setting [21]); 0.885 µM with HLA-B*58:01 (setting [21]); at least 20 µM in the test with HLA-B*07:02 [17] (setting [21]); 0.13 µM with HLA-B*57:01 (setting [21]); at least 20 µM with HLA-B*27:05 (setting [21]). The Kd with HLA-A*02:01 [12] (setting [21]) is at least 20 µM; with HLA-A*03:01 [13] (setting [21]), at least 20 µM; with HLA-B*15:17 (setting [21]), 0.0126 µM.

For PTDYAKPQY, the Kd is at least 20 µM with HLA-A*11:01 [10] (setting [22]); at least 20 µM with HLA-B*15:01 (setting [22]); 0.0525 µM with HLA-A*01:01 [1] (setting [22]); at least 20 µM in the test with HLA-B*58:01 (setting [22]); at least 20 µM with HLA-B*08:01 (source organism: Bacillus anthracis str. A2012); at least 20 µM with HLA-B*07:02 [17] (setting [22]). Further, the Kd with HLA-B*46:01 (setting [22]), with HLA-A*69:01 (setting [22]), in the test with HLA-B*48:01 (setting [22]), with HLA-B*57:01 (setting [22]), with HLA-B*27:05 (setting [22]) and with HLA-B*18:01 [11] (setting [22]) was at least 20 µM throughout. The dissociation constant (Kd) in the test with HLA-A*02:01 [12] (setting [22]), with HLA-A*03:01 [13] (setting [22]), in the test with HLA-B*40:01 [14] (setting [22]), with HLA-B*15:17 (setting [22]) and with HLA-A*31:01 [15] (setting [22]) was at least 20 µM each time.

The Kd is the constant that tells how readily two partners part at equilibrium.
